From PMC6351000

Biological target: HIV-1 envelope glycoprotein (Env) of the Tier 1B subtype B strain BaL.01, cell surface-expressed (HIV-1 (subtype B, strain BaL.01))

**Q.** How did the sCD4 concentration at the peak of the basal epitope exposure curve of V3 crown mAb 1-79 (antibody staining of Env-expressing cells, flow cytometry, increasing sCD4) turn out when “recombinant two-domain sCD4 (sCD4-183_avi_his.bio) (domain or fragment)” was run?
**A.** 5 µM
